From PMC6879612 (Nature Communications, 2019) come the findings set out here.

The target of the test is T1, p53_(125–134)/HLA-A24 pMHC, soluble recombinant (Homo sapiens, HLA-A*24:02, biotin where the biotinylated pMHC was used (site not stated)).
T1 construct: HLA-A24 heavy chain (α-chain), recombinant; β2-microglobulin, recombinant; source: biotinylated or non-biotinylated; copies: + +
Nature of the test: ELISA; biotinylated pMHC captured on NeutrAvidin-coated wells; IgG1 in solution, detected with HRP anti-human IgG Fcγ. The following applies: both partners purified.

B1: P1C1 (parental clone), human IgG1 (antibody, V domains shown)
VH: QLQLQESGPGLVKPSQTLSLTCAVSGGSISSGGYYWSWIRQRPGKGLEWIGYIYYSGSTYYNPSLKSRLTISVDTSKNQFSLKLSSVTAADTAVYYCARENFGAFDHWGQGTLVTVSS
VL: QAVLTQPSSVSGAPGQRVTISCTGSSSNIGADYETHWYQHLPGTAPKLLIYGNTNRPSGVPHRFSGSKSGTSASLAITGLQAEDEADYYCQSYDSNLSAWVFGGGTKLTIL
notes: heavy framework 1 of the parental clone; heavy CDR1 (Kabat); heavy framework 2, CDR2, framework 3; heavy CDR3 (Kabat); heavy framework 4; light framework 1 of the parental clone; light CDR1 (Kabat); light framework 2, CDR2, framework 3; light CDR3 (Kabat); light framework 4; Human IgG1; From a naive human Fab phage library (Humanyx); also called parental P1C1 antibody; source: HEK293-6E, pTT5 …
Consider B1, for which the binding result was “binds”.
